Laboratory results from the supplement of paper PMC9112550, “Optimization of the antimicrobial peptide Bac7 by deep mutational scanning” (BMC Biology, 2022).

Tested on: Escherichia coli TOP10
Assay: shrunken log2 fold change of peptide-encoding DNA abundance (4.5 h post-induction vs induction); higher = less antimicrobial activity (less host growth inhibition)
Conditions: time post-induction: 4.5 h; library: site-saturation at positions 5, 18, 19, 20
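Also: peptides expressed intracellularly from a pBAD plasmid library in pooled LB shake-flask culture, induced with 0.3% L-arabinose, DNA abundance read by NGS, three biological replicates, DESeq2 with apeglm shrinkage.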

RRIRIRPPRLPRPRPRPEGAPRP
shrunken log2 fold change: 0.27

RRIRIRPPRLPRPRPRPEHSPRP
shrunken log2 fold change: 0.0398

RRIRIRPPRLPRPRPRPEIHPRP
shrunken log2 fold change: -0.0126

RRIRIRPPRLPRPRPRPEKEPRP
shrunken log2 fold change: -0.00237

RRIRIRPPRLPRPRPRPEKFPRP
shrunken log2 fold change: -0.247

RRIRIRPPRLPRPRPRPEKLPRP
shrunken log2 fold change: -0.048

RRIRIRPPRLPRPRPRPELPPRP
shrunken log2 fold change: 0.0135

RRIRIRPPRLPRPRPRPELWPRP
shrunken log2 fold change: 0.243

RRIRIRPPRLPRPRPRPEMDPRP
shrunken log2 fold change: -0.277

RRIRIRPPRLPRPRPRPENAPRP
shrunken log2 fold change: -0.0916

RRIRIRPPRLPRPRPRPENGPRP
shrunken log2 fold change: -0.219

RRIRIRPPRLPRPRPRPENLPRP
shrunken log2 fold change: -0.0595

RRIRIRPPRLPRPRPRPEPDPRP
shrunken log2 fold change: -0.00501

RRIRIRPPRLPRPRPRPEQQPRP
shrunken log2 fold change: -0.132

RRIRIRPPRLPRPRPRPERHPRP
shrunken log2 fold change: 0.0733

RRIRIRPPRLPRPRPRPERLPRP
shrunken log2 fold change: 0.0553

RRIRIRPPRLPRPRPRPESEPRP
shrunken log2 fold change: -0.0338

RRIRIRPPRLPRPRPRPETMPRP
shrunken log2 fold change: -0.108

RRIRIRPPRLPRPRPRPEVSPRP
shrunken log2 fold change: 0.068

RRIRIRPPRLPRPRPRPEVVPRP
shrunken log2 fold change: 0.00224

RRIRIRPPRLPRPRPRPEVWPRP
shrunken log2 fold change: 0.217

RRIRIRPPRLPRPRPRPEWAPRP
shrunken log2 fold change: 0.0716

RRIRIRPPRLPRPRPRPEWNPRP
shrunken log2 fold change: -0.332

RRIRIRPPRLPRPRPRPEYNPRP
shrunken log2 fold change: 0.0781

RRIRIRPPRLPRPRPRPFATPRP
shrunken log2 fold change: -0.0964

RRIRIRPPRLPRPRPRPFCDPRP
shrunken log2 fold change: -0.0745

RRIRIRPPRLPRPRPRPFDTPRP
shrunken log2 fold change: 0.0514

RRIRIRPPRLPRPRPRPFFMPRP
shrunken log2 fold change: -0.538

RRIRIRPPRLPRPRPRPFFRPRP
shrunken log2 fold change: -0.636

RRIRIRPPRLPRPRPRPFHQPRP
shrunken log2 fold change: -0.961

RRIRIRPPRLPRPRPRPFHTPRP
shrunken log2 fold change: -0.235

RRIRIRPPRLPRPRPRPFHYPRP
shrunken log2 fold change: 0.0334

RRIRIRPPRLPRPRPRPFIDPRP
shrunken log2 fold change: -0.205

RRIRIRPPRLPRPRPRPFIIPRP
shrunken log2 fold change: -1.76

RRIRIRPPRLPRPRPRPFIRPRP
shrunken log2 fold change: -0.358

RRIRIRPPRLPRPRPRPFKRPRP
shrunken log2 fold change: -0.446

RRIRIRPPRLPRPRPRPFLHPRP
shrunken log2 fold change: -0.787

RRIRIRPPRLPRPRPRPFLPPRP
shrunken log2 fold change: -0.4

RRIRIRPPRLPRPRPRPFMHPRP
shrunken log2 fold change: -0.0575

RRIRIRPPRLPRPRPRPFNVPRP
shrunken log2 fold change: -0.217

RRIRIRPPRLPRPRPRPFQEPRP
shrunken log2 fold change: -0.0383

RRIRIRPPRLPRPRPRPFQQPRP
shrunken log2 fold change: -0.0967

RRIRIRPPRLPRPRPRPFQTPRP
shrunken log2 fold change: -0.271

RRIRIRPPRLPRPRPRPFRSPRP
shrunken log2 fold change: -0.221

RRIRIRPPRLPRPRPRPFRTPRP
shrunken log2 fold change: -0.241

RRIRIRPPRLPRPRPRPFTCPRP
shrunken log2 fold change: 0.0493

RRIRIRPPRLPRPRPRPFTTPRP
shrunken log2 fold change: -0.509

RRIRIRPPRLPRPRPRPFVSPRP
shrunken log2 fold change: -0.571

RRIRIRPPRLPRPRPRPFVTPRP
shrunken log2 fold change: -0.938

RRIRIRPPRLPRPRPRPFWSPRP
shrunken log2 fold change: 0.0627

RRIRIRPPRLPRPRPRPFYEPRP
shrunken log2 fold change: -0.231

RRIRIRPPRLPRPRPRPGAGPRP
shrunken log2 fold change: 0.29

RRIRIRPPRLPRPRPRPGAVPRP
shrunken log2 fold change: 0.28

RRIRIRPPRLPRPRPRPGCKPRP
shrunken log2 fold change: -0.0374

RRIRIRPPRLPRPRPRPGDDPRP
shrunken log2 fold change: 0.136

RRIRIRPPRLPRPRPRPGDNPRP
shrunken log2 fold change: -0.317

RRIRIRPPRLPRPRPRPGDPPRP
shrunken log2 fold change: -0.0811

RRIRIRPPRLPRPRPRPGFWPRP
shrunken log2 fold change: 0.0561

RRIRIRPPRLPRPRPRPGGCPRP
shrunken log2 fold change: 0.0544

RRIRIRPPRLPRPRPRPGGYPRP
shrunken log2 fold change: -0.16

RRIRIRPPRLPRPRPRPGHEPRP
shrunken log2 fold change: 0.018

RRIRIRPPRLPRPRPRPGHKPRP
shrunken log2 fold change: -0.363

RRIRIRPPRLPRPRPRPGKHPRP
shrunken log2 fold change: -0.222

RRIRIRPPRLPRPRPRPGLFPRP
shrunken log2 fold change: -0.0275

RRIRIRPPRLPRPRPRPGQCPRP
shrunken log2 fold change: -0.13

RRIRIRPPRLPRPRPRPGQRPRP
shrunken log2 fold change: -0.0709

RRIRIRPPRLPRPRPRPGRGPRP
shrunken log2 fold change: 0.268

RRIRIRPPRLPRPRPRPGTKPRP
shrunken log2 fold change: -0.0997

RRIRIRPPRLPRPRPRPGVQPRP
shrunken log2 fold change: -0.00174

RRIRIRPPRLPRPRPRPGWLPRP
shrunken log2 fold change: -0.0831

RRIRIRPPRLPRPRPRPGWTPRP
shrunken log2 fold change: 0.11

RRIRIRPPRLPRPRPRPGYCPRP
shrunken log2 fold change: -0.371

RRIRIRPPRLPRPRPRPGYFPRP
shrunken log2 fold change: -0.904

RRIRIRPPRLPRPRPRPGYKPRP
shrunken log2 fold change: -0.231

RRIRIRPPRLPRPRPRPHACPRP
shrunken log2 fold change: -1.14
